T1: full-length Sirt1 (human, UniProt Q96EB6 1-747)
T1 sequence (looked up): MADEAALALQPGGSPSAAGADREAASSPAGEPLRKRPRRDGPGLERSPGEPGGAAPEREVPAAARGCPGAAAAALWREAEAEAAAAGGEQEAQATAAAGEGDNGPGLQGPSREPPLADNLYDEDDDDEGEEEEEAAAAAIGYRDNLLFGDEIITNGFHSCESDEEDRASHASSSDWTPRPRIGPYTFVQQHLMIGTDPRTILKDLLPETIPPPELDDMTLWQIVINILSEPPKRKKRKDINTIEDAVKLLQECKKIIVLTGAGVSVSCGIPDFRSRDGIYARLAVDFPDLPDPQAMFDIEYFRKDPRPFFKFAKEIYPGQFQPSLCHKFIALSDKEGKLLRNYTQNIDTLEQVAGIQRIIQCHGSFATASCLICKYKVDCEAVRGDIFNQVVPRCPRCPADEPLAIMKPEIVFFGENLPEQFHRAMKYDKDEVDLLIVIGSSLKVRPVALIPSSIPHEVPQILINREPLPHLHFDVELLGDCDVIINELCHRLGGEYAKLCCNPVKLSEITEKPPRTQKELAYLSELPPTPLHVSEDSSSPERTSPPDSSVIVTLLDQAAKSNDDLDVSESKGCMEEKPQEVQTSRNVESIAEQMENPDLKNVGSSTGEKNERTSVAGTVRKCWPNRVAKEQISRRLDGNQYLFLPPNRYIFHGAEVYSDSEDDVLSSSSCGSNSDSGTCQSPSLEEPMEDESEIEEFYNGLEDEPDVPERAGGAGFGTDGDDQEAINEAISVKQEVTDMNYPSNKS

T2: Sirt5 residues 34–302 (human, UniProt Q9NXA8 34-302)
T2 construct: human Sirt5, residues 34-302 (pET151/D-TOPO); source: E. coli BL21 (DE3) CodonPlus, purified (Ni beads, TEV cleavage, S200 gel filtration)
T2 sequence (looked up): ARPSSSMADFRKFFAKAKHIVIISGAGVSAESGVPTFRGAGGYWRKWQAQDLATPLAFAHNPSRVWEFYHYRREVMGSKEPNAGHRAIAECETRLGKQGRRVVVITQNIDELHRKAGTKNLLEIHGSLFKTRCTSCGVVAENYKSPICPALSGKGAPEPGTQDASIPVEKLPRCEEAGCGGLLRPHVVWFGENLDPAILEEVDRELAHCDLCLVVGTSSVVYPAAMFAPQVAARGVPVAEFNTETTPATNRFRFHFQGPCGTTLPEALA

T3: Sirt3 residues 118–399 (human, UniProt Q9NTG7 118-399)
T3 construct: human Sirt3, residues 118-399 (pVFT3S); source: E. coli BL21 (DE3) CodonPlus, purified (Ni beads, TEV cleavage, ion exchange, S200 gel filtration)
T3 sequence (looked up): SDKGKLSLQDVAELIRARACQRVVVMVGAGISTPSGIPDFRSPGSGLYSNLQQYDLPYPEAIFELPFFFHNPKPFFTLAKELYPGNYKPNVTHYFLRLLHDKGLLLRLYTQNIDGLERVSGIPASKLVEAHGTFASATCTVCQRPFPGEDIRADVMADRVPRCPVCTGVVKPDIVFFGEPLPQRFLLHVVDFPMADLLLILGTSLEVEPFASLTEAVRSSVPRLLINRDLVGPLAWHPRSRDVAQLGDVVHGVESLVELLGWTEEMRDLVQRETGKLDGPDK

T4: AROS 1–89 (N-terminus of AROS) (human, UniProt Q86WX3 1-89)
T4 construct: human AROS (RPS19BP1), residues 1-89; Preparation is told for 'human AROS constructs' in general
T4 sequence (looked up): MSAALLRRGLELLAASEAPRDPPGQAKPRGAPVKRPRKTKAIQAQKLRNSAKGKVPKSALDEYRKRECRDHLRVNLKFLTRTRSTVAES

B1: active regulator of Sirt1 (AROS), full length, residues 1-136 (natural protein, human, UniProt Q86WX3 1-136, looked up)
chain: MSAALLRRGLELLAASEAPRDPPGQAKPRGAPVKRPRKTKAIQAQKLRNSAKGKVPKSALDEYRKRECRDHLRVNLKFLTRTRSTVAESVSQQILRQNRGRKACDRPVAKTKKKKAEGTVFTEEDFQKFQQEYFGS
notes: human AROS (RPS19BP1), residues 1-136, with N-terminal hexahistidine tag and TEV protease cleavage site (modified pET19b); No tag removal is described; 15N-labelled for the NMR titrations; In MST either AROS or Sirt1 carried Cy5 on lysines; also called AROS 1–136; full-length AROS; not shown: His6, N-terminal, kept
B2: AROS peptide 96-109 (peptide)
peptide: RQNRGRKACDRPVA
notes: human AROS (RPS19BP1), residues 96-109; also called AROS96-109; AROS 96–109; source: synthetic peptide, bought: GL Biochem
B3: AROS peptide 62-71 (peptide)
peptide: EYRKRECRDH
notes: human AROS (RPS19BP1), residues 62-71; also called AROS62-71; AROS 62–71; source: synthetic peptide, bought: GL Biochem
B4: mini-Sirt1ex687 (domain or fragment)
chain: GPYTFVQQHLMIGTDPRTILKDLLPETIPPPELDDMTLWQIVINILSEPPKRKKRKDINTIEDAVKLLQECKKIIVLTGAGVSVSCGIPDFRSRDGIYARLAVDFPDLPDPQAMFDIEYFRKDPRPFFKFAKEIYPGQFQPSLCHKFIALSDKEGKLLRNYTQNIDTLEQVAGIQRIIQCHGSFATASCLICKYKVDCEAVRGDIFNQVVPRCPRCPADEPLAIMKPEIVFFGENLPEQFHRAMKYDKDEVDLLIVIGSSLKVRPVALIPSSIPHEVPQILINREPLPHLHFDVELLGDCDVIINELCHRLGGEYAKLCCNPVGGGSGGGSQYLFLPPNRYIFHGAEVYSDSEDDVLSSSSCGSNSDSGTCQSPSLEE
B5: Sirt1 144–230 (N-terminus and SBD) (domain or fragment, human, UniProt Q96EB6 144-230, looked up)
chain: DNLLFGDEIITNGFHSCESDEEDRASHASSSDWTPRPRIGPYTFVQQHLMIGTDPRTILKDLLPETIPPPELDDMTLWQIVINILSE
notes: also called Sirt1-SBD
B6: AROS peptide 80-91 (peptide)
peptide: TRTRSTVAESVS
notes: human AROS (RPS19BP1), residues 80-91; also called AROS80-91; AROS 80–91; source: synthetic peptide, bought: GL Biochem

How the values were obtained:
full-length Sirt1 = biological target: T1, full-length Sirt1; test: cell-based or functional assay
Sirt5 residues 34–302 = biological target: T2, Sirt5 residues 34–302; test: cross-linking; 2 mM DSSO, 50 µM of each protein, 50 mM NaHPO4 pH 7, 250 mM NaCl, RT; SDS-PAGE; bands analysed by LC-ESI-MS/MS; conditions: both partners purified
mini-Sirt1ex687 = biological target: B4; test: MST; either AROS or Sirt1 labelled with Cy5-NHS ester (40–120 nM labelled protein); 50 mM Na2HPO4/NaH2PO4 pH 7.0, 250 mM NaCl, 2 mg/mL BSA, 20 °C; Monolith NT.115; conditions: both partners purified
Sirt3 residues 118–399 = biological target: T3, Sirt3 residues 118–399; test: crystal structure; 10 mg/mL Sirt3 pre-incubated with 1 mM AROS peptide 62–71 and 1 mM AROS peptide 96–109; 12% PEG 8.000, 0.1 M HEPES pH 7.5, 0.2 M NaCl, 20 °C; 3.27 Å; conditions: both partners purified
[1] = biological target: B5; test: MST; either AROS or Sirt1 labelled with Cy5-NHS ester (40–120 nM labelled protein); 50 mM Na2HPO4/NaH2PO4 pH 7.0, 250 mM NaCl, 2 mg/mL BSA, 20 °C; Monolith NT.115; conditions: both partners purified
[2] = biological target: T4, AROS 1–89 (N-terminus of AROS); test: as above; conditions: both partners purified
[3] = biological target: B1; test: as above; conditions: both partners purified

| Binder | Kd (mini-Sirt1ex687) | Kd [1] | Kd [2] | further results |
| --- | --- | --- | --- | --- |
| B1 | – | – | – | increase of KM for the acetylated FdL substrate peptide with 40 µM AROS (FdL activity assay, substrate titration) (full-length Sirt1): ~3 fold; binding result (Sirt5 residues 34–302): binds |
| B2 | 151 ± 31 µM | – | – | – |
| B3 | 86 ± 16 µM | 166 ± 24 µM | – | binding result (Sirt3 residues 118–399): binds |
| B4 | – | – | 65 ± 9 µM | Kd [3]: 1.3 ± 0.2 µM |
| B5 | – | – | 209 ± 67 µM | – |
| B6 | 721 ± 310 µM | 579 ± 102 µM | – | – |

Reference: PMC9654219, “Molecular Mechanism of Sirtuin 1 Modulation by the AROS Protein” (International Journal of Molecular Sciences, 2022)
